Assay results as given in patent US20210388087A1 (Chugai, published 2021).

B1: CE115HA000 G98Q one-arm antibody (antibody, human IgG1, kappa, L234A L235A, N297A, name in Kabat numbering)
heavy: QVQLVESGGGVVQPGRSLRLSCAASGFTFSNAWMHWVRQAPGKGLEWVAQIKAKSNNYATYYAESVKGRFTISRDDSKNSLYLQMNSLKTEDTAVYYCRYVHYQAYYGVDAWGQGTTVTVSSASTKGPSVFPLAPSSKSTSGGTAALGCLVKDYFPEPVTVSWNSGALTSGVHTFPAVLQSSGLYSLSSVVTVPSSSLGTQTYICNVNHKPSNTKVDKKVEPKSCDKTHTCPPCPAPEAAGGPSVFLFPPKPKDTLMISRTPEVTCVVVDVSHEDPEVKFNWYVDGVEVHNAKTKPREEQYASTYRVVSVLTVLHQDWLNGKEYKCKVSNKALPAPIEKTISKAKGQPREPQVYTLPPSRCELTKNQVSLSCAVKGFYPSDIAVEWESNGQPENNYKTTPPVLDSDGSFFLVSKLTVDKSRWQQGNVFSCSVMHEALHNHYTQKSLSLSPDYKDDDDK
chain: EPKSSDKTHTCPPCPAPELLGGPSVFLFPPKPKDTLMISRTPEVTCVVVDVSHEDPEVKFNWYVDGVEVHNAKTKPREEQYNSTYRVVSVLTVLHQDWLNGKEYKCKVSNKALPAPIEKTISKAKGQPREPQVCTLPPSRDELTKNQVSLWCLVKGFYPSDIAVEWESNGQPENNYKTTPPVLDSDGSFFLYSKLTVDKSRWQQGNVFSCSVMHEALHNRYTQKSLSLSP
light: DIVMTQSPLSLPVTPGEPASISCRSSQSLVHSNRNTYLHWYQQKPGQAPRLLIYKVSNRFSGVPDRFSGSGSGTDFTLKISRVEAEDVGVYYCGQGTQVPYTFGQGTKLEIKRTVAAPSVFIFPPSDEQLKSGTASVVCLLNNFYPREAKVQWKVDNALQSGNSQESVTEQDSKDSTYSLSSTLTLSKADYEKHKVYACEVTHQGLSSPVTKSFNRGEC
B2: CE115HA000 G98Y one-arm antibody (antibody, human IgG1, kappa, L234A L235A, N297A, name in Kabat numbering)
heavy: QVQLVESGGGVVQPGRSLRLSCAASGFTFSNAWMHWVRQAPGKGLEWVAQIKAKSNNYATYYAESVKGRFTISRDDSKNSLYLQMNSLKTEDTAVYYCRYVHYYAYYGVDAWGQGTTVTVSSASTKGPSVFPLAPSSKSTSGGTAALGCLVKDYFPEPVTVSWNSGALTSGVHTFPAVLQSSGLYSLSSVVTVPSSSLGTQTYICNVNHKPSNTKVDKKVEPKSCDKTHTCPPCPAPEAAGGPSVFLFPPKPKDTLMISRTPEVTCVVVDVSHEDPEVKFNWYVDGVEVHNAKTKPREEQYASTYRVVSVLTVLHQDWLNGKEYKCKVSNKALPAPIEKTISKAKGQPREPQVYTLPPSRCELTKNQVSLSCAVKGFYPSDIAVEWESNGQPENNYKTTPPVLDSDGSFFLVSKLTVDKSRWQQGNVFSCSVMHEALHNHYTQKSLSLSPDYKDDDDK
chain: EPKSSDKTHTCPPCPAPELLGGPSVFLFPPKPKDTLMISRTPEVTCVVVDVSHEDPEVKFNWYVDGVEVHNAKTKPREEQYNSTYRVVSVLTVLHQDWLNGKEYKCKVSNKALPAPIEKTISKAKGQPREPQVCTLPPSRDELTKNQVSLWCLVKGFYPSDIAVEWESNGQPENNYKTTPPVLDSDGSFFLYSKLTVDKSRWQQGNVFSCSVMHEALHNRYTQKSLSLSP
light: DIVMTQSPLSLPVTPGEPASISCRSSQSLVHSNRNTYLHWYQQKPGQAPRLLIYKVSNRFSGVPDRFSGSGSGTDFTLKISRVEAEDVGVYYCGQGTQVPYTFGQGTKLEIKRTVAAPSVFIFPPSDEQLKSGTASVVCLLNNFYPREAKVQWKVDNALQSGNSQESVTEQDSKDSTYSLSSTLTLSKADYEKHKVYACEVTHQGLSSPVTKSFNRGEC
B3: CE115HA000 G98T one-arm antibody (antibody, human IgG1, kappa, L234A L235A, N297A, name in Kabat numbering)
heavy: QVQLVESGGGVVQPGRSLRLSCAASGFTFSNAWMHWVRQAPGKGLEWVAQIKAKSNNYATYYAESVKGRFTISRDDSKNSLYLQMNSLKTEDTAVYYCRYVHYTAYYGVDAWGQGTTVTVSSASTKGPSVFPLAPSSKSTSGGTAALGCLVKDYFPEPVTVSWNSGALTSGVHTFPAVLQSSGLYSLSSVVTVPSSSLGTQTYICNVNHKPSNTKVDKKVEPKSCDKTHTCPPCPAPEAAGGPSVFLFPPKPKDTLMISRTPEVTCVVVDVSHEDPEVKFNWYVDGVEVHNAKTKPREEQYASTYRVVSVLTVLHQDWLNGKEYKCKVSNKALPAPIEKTISKAKGQPREPQVYTLPPSRCELTKNQVSLSCAVKGFYPSDIAVEWESNGQPENNYKTTPPVLDSDGSFFLVSKLTVDKSRWQQGNVFSCSVMHEALHNHYTQKSLSLSPDYKDDDDK
chain: EPKSSDKTHTCPPCPAPELLGGPSVFLFPPKPKDTLMISRTPEVTCVVVDVSHEDPEVKFNWYVDGVEVHNAKTKPREEQYNSTYRVVSVLTVLHQDWLNGKEYKCKVSNKALPAPIEKTISKAKGQPREPQVCTLPPSRDELTKNQVSLWCLVKGFYPSDIAVEWESNGQPENNYKTTPPVLDSDGSFFLYSKLTVDKSRWQQGNVFSCSVMHEALHNRYTQKSLSLSP
light: DIVMTQSPLSLPVTPGEPASISCRSSQSLVHSNRNTYLHWYQQKPGQAPRLLIYKVSNRFSGVPDRFSGSGSGTDFTLKISRVEAEDVGVYYCGQGTQVPYTFGQGTKLEIKRTVAAPSVFIFPPSDEQLKSGTASVVCLLNNFYPREAKVQWKVDNALQSGNSQESVTEQDSKDSTYSLSSTLTLSKADYEKHKVYACEVTHQGLSSPVTKSFNRGEC
B4: CE115HA000 G100bD one-arm antibody (antibody, human IgG1, kappa, L234A L235A, N297A, name in Kabat numbering)
heavy: QVQLVESGGGVVQPGRSLRLSCAASGFTFSNAWMHWVRQAPGKGLEWVAQIKAKSNNYATYYAESVKGRFTISRDDSKNSLYLQMNSLKTEDTAVYYCRYVHYGAYYDVDAWGQGTTVTVSSASTKGPSVFPLAPSSKSTSGGTAALGCLVKDYFPEPVTVSWNSGALTSGVHTFPAVLQSSGLYSLSSVVTVPSSSLGTQTYICNVNHKPSNTKVDKKVEPKSCDKTHTCPPCPAPEAAGGPSVFLFPPKPKDTLMISRTPEVTCVVVDVSHEDPEVKFNWYVDGVEVHNAKTKPREEQYASTYRVVSVLTVLHQDWLNGKEYKCKVSNKALPAPIEKTISKAKGQPREPQVYTLPPSRCELTKNQVSLSCAVKGFYPSDIAVEWESNGQPENNYKTTPPVLDSDGSFFLVSKLTVDKSRWQQGNVFSCSVMHEALHNHYTQKSLSLSPDYKDDDDK
chain: EPKSSDKTHTCPPCPAPELLGGPSVFLFPPKPKDTLMISRTPEVTCVVVDVSHEDPEVKFNWYVDGVEVHNAKTKPREEQYNSTYRVVSVLTVLHQDWLNGKEYKCKVSNKALPAPIEKTISKAKGQPREPQVCTLPPSRDELTKNQVSLWCLVKGFYPSDIAVEWESNGQPENNYKTTPPVLDSDGSFFLYSKLTVDKSRWQQGNVFSCSVMHEALHNRYTQKSLSLSP
light: DIVMTQSPLSLPVTPGEPASISCRSSQSLVHSNRNTYLHWYQQKPGQAPRLLIYKVSNRFSGVPDRFSGSGSGTDFTLKISRVEAEDVGVYYCGQGTQVPYTFGQGTKLEIKRTVAAPSVFIFPPSDEQLKSGTASVVCLLNNFYPREAKVQWKVDNALQSGNSQESVTEQDSKDSTYSLSSTLTLSKADYEKHKVYACEVTHQGLSSPVTKSFNRGEC
B5: CE115HA000 G98R one-arm antibody (antibody, human IgG1, kappa, L234A L235A, N297A, name in Kabat numbering)
heavy: QVQLVESGGGVVQPGRSLRLSCAASGFTFSNAWMHWVRQAPGKGLEWVAQIKAKSNNYATYYAESVKGRFTISRDDSKNSLYLQMNSLKTEDTAVYYCRYVHYRAYYGVDAWGQGTTVTVSSASTKGPSVFPLAPSSKSTSGGTAALGCLVKDYFPEPVTVSWNSGALTSGVHTFPAVLQSSGLYSLSSVVTVPSSSLGTQTYICNVNHKPSNTKVDKKVEPKSCDKTHTCPPCPAPEAAGGPSVFLFPPKPKDTLMISRTPEVTCVVVDVSHEDPEVKFNWYVDGVEVHNAKTKPREEQYASTYRVVSVLTVLHQDWLNGKEYKCKVSNKALPAPIEKTISKAKGQPREPQVYTLPPSRCELTKNQVSLSCAVKGFYPSDIAVEWESNGQPENNYKTTPPVLDSDGSFFLVSKLTVDKSRWQQGNVFSCSVMHEALHNHYTQKSLSLSPDYKDDDDK
chain: EPKSSDKTHTCPPCPAPELLGGPSVFLFPPKPKDTLMISRTPEVTCVVVDVSHEDPEVKFNWYVDGVEVHNAKTKPREEQYNSTYRVVSVLTVLHQDWLNGKEYKCKVSNKALPAPIEKTISKAKGQPREPQVCTLPPSRDELTKNQVSLWCLVKGFYPSDIAVEWESNGQPENNYKTTPPVLDSDGSFFLYSKLTVDKSRWQQGNVFSCSVMHEALHNRYTQKSLSLSP
light: DIVMTQSPLSLPVTPGEPASISCRSSQSLVHSNRNTYLHWYQQKPGQAPRLLIYKVSNRFSGVPDRFSGSGSGTDFTLKISRVEAEDVGVYYCGQGTQVPYTFGQGTKLEIKRTVAAPSVFIFPPSDEQLKSGTASVVCLLNNFYPREAKVQWKVDNALQSGNSQESVTEQDSKDSTYSLSSTLTLSKADYEKHKVYACEVTHQGLSSPVTKSFNRGEC
B6: CE115HA000 G98S one-arm antibody (antibody, human IgG1, kappa, L234A L235A, N297A, name in Kabat numbering)
heavy: QVQLVESGGGVVQPGRSLRLSCAASGFTFSNAWMHWVRQAPGKGLEWVAQIKAKSNNYATYYAESVKGRFTISRDDSKNSLYLQMNSLKTEDTAVYYCRYVHYSAYYGVDAWGQGTTVTVSSASTKGPSVFPLAPSSKSTSGGTAALGCLVKDYFPEPVTVSWNSGALTSGVHTFPAVLQSSGLYSLSSVVTVPSSSLGTQTYICNVNHKPSNTKVDKKVEPKSCDKTHTCPPCPAPEAAGGPSVFLFPPKPKDTLMISRTPEVTCVVVDVSHEDPEVKFNWYVDGVEVHNAKTKPREEQYASTYRVVSVLTVLHQDWLNGKEYKCKVSNKALPAPIEKTISKAKGQPREPQVYTLPPSRCELTKNQVSLSCAVKGFYPSDIAVEWESNGQPENNYKTTPPVLDSDGSFFLVSKLTVDKSRWQQGNVFSCSVMHEALHNHYTQKSLSLSPDYKDDDDK
chain: EPKSSDKTHTCPPCPAPELLGGPSVFLFPPKPKDTLMISRTPEVTCVVVDVSHEDPEVKFNWYVDGVEVHNAKTKPREEQYNSTYRVVSVLTVLHQDWLNGKEYKCKVSNKALPAPIEKTISKAKGQPREPQVCTLPPSRDELTKNQVSLWCLVKGFYPSDIAVEWESNGQPENNYKTTPPVLDSDGSFFLYSKLTVDKSRWQQGNVFSCSVMHEALHNRYTQKSLSLSP
light: DIVMTQSPLSLPVTPGEPASISCRSSQSLVHSNRNTYLHWYQQKPGQAPRLLIYKVSNRFSGVPDRFSGSGSGTDFTLKISRVEAEDVGVYYCGQGTQVPYTFGQGTKLEIKRTVAAPSVFIFPPSDEQLKSGTASVVCLLNNFYPREAKVQWKVDNALQSGNSQESVTEQDSKDSTYSLSSTLTLSKADYEKHKVYACEVTHQGLSSPVTKSFNRGEC

biological target: T1, CD3 epsilon homodimer protein (UniProt P07766 23-126); test: SPR (Biacore T200), CD3 epsilon homodimer on CM4 chip, one-arm antibody as analyte, 25 C;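 note: homodimer attached to the sensor surface via amine coupling, HBS-EP+ used as running buffer during binding runs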
T1 construct: immobilized on Sensor chip CM4 by amine coupling; also called CD3 (CD3 epsilon)
T1 sequence (P07766 23-126): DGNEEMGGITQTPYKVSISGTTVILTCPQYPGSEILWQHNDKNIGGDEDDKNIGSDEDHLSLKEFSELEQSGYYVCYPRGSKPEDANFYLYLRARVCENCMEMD

Compared with B1, B2 is higher in “ratio of amounts bound (altered form / CE115HA000)” value: 1.22 for the first, 2.22 for the second.

Compared with B3, B4 is lower in “ratio of amounts bound (altered form / CE115HA000)” value: 1.05 for the first, 0.27 for the second.

Compared with B5, B6 is lower in “ratio of amounts bound (altered form / CE115HA000)” value: 2.96 for the first, 1.01 for the second.
